This experiment deals with PTPσ-CFP (protein tyrosine phosphatase receptor PTPσ expressed in COS cells) (UniProt Q13332 30-1948). Nature of the experiment: cell-surface binding assay.

This is an account of results in PMC3056349 (Neuron, 2011).

Chain of PTPσ-CFP (protein tyrosine phosphatase receptor PTPσ expressed in COS cells) (Q13332 30-1948): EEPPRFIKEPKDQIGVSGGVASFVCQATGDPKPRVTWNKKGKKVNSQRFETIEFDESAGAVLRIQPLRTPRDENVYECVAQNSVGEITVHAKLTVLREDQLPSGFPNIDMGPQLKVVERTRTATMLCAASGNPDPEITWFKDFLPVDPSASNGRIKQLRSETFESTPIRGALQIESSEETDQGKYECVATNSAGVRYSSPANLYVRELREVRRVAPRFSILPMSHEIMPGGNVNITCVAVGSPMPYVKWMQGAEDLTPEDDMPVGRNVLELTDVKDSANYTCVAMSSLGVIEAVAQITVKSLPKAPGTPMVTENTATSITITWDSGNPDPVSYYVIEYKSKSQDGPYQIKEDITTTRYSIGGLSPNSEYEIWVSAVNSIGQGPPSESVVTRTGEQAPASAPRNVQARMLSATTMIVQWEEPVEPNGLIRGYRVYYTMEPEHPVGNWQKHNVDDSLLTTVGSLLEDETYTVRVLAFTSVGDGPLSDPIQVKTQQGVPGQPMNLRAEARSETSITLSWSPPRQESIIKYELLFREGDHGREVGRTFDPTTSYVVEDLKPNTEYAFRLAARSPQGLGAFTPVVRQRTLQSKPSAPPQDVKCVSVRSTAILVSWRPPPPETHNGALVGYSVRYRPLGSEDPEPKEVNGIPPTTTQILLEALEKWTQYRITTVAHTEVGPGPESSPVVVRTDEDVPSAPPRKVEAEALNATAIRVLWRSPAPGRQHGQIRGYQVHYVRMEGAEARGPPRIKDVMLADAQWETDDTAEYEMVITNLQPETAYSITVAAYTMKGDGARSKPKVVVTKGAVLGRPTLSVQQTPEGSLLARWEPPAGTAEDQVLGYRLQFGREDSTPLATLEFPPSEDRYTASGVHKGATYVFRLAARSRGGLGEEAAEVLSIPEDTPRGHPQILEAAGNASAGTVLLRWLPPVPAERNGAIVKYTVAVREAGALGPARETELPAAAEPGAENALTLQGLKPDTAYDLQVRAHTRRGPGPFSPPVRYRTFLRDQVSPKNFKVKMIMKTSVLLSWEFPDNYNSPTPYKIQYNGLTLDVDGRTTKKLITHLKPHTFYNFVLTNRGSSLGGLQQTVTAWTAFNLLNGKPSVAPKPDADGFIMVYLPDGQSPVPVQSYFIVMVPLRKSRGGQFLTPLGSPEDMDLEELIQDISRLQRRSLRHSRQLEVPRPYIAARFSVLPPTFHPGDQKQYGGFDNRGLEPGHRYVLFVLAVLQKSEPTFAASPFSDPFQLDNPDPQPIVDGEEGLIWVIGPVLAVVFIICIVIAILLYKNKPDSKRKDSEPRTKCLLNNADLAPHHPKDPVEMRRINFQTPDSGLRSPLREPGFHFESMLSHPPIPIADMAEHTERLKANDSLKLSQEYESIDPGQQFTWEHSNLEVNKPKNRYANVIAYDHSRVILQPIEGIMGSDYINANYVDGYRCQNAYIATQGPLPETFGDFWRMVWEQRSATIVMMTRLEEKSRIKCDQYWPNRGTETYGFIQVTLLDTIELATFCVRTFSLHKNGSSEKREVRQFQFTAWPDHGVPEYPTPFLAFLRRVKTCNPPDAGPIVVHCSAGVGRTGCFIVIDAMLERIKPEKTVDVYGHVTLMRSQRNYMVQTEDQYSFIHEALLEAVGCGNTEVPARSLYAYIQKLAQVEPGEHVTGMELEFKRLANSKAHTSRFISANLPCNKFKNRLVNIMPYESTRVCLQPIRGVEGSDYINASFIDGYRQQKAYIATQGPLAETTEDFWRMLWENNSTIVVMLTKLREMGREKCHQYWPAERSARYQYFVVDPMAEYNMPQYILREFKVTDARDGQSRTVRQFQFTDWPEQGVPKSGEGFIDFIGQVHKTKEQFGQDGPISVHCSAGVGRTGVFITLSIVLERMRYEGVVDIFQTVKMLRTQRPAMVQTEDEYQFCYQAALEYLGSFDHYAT

B1: TrkC-Fc (soluble purified TrkC ectodomain fused to human immunoglobulin Fc region) (Fc fusion, rat, UniProt Q03351 32-429, looked up)
chain: CPANCVCSKTEINCRRPDDGNLFPLLEGQDSGNSNGNASINITDISRNITSIHIENWRGLHTLNAVDMELYTGLQKLTIKNSGLRNIQPRAFAKNPHLRYINLSSNRLTTLSWQLFQTLSLRELRLEQNFFNCSCDIRWMQLWQEQGEARLDSQSLYCISADGSQLPLFRMNISQCDLPEISVSHVNLTVREGDNAVITCNGSGSPLPDVDWIVTGLQSINTHQTNLNWTNVHAINLTLVNVTSEDNGFTLTCIAENVVGMSNASVALTVYYPPRVVSLVEPEVRLEHCIEFVVRGNPTPTLHWLYNGQPLRESKIIHMDYYQEGEVSEGCLLFNKPTHYNNGNYTLIAKNALGTANQTINGHFLKEPFPESTDFFDFESDASPTPPITVTHKPEEDT
On to B1, for which binding was characterised by a dissociation constant (Kd) of 9.3 nM.
